Test results: article PMC11456535, “Receptor activity-modifying protein modulation of parathyroid hormone-1 receptor function and signaling” (Frontiers in Pharmacology, 2024)
Read-outs that look alike come from different tables or passages of the source.

Tests used:
[1] = target: PTH1R of the PathHunter CHO-K1 PTH1R β-arrestin cell line (UniProt Q03431)
[2] = target: PTH1R of the PathHunter CHO-K1 PTH1R β-arrestin cell line (UniProt Q03431); remark: listed apart in the source
[3] = target: PTH1R of the PathHunter CHO-K1 PTH1R β-arrestin cell line (UniProt Q03431); remark: listed apart in the source
[4] = target: T1, parathyroid hormone 1 receptor, C-tagged Citrine PTH1R (human, UniProt Q03431 27-593); experiment: FRET or BRET; sensitized-emission FRET imaging at the cell surface (50-pixel membrane ROIs) of fixed COS-7 cells co-transfected with C-tagged Citrine PTH1R (acceptor) and C-tagged Cerulean RAMP (donor); NFRET as % of a Cerulean-Citrine fusion; FRET-based stoichiometric analysis (Hoppe et al., 2002); details: partners not purified
T1 construct: parathyroid hormone 1 receptor (PTH1R), cDNA without its stop codon between HindIII and Not1 of pcDNA3.1 Citrine; also called parathyroid hormone receptor-1; PTHR1; source: COS-7, transfected (electroporation, pcDNA3.1), in fixed cells; not shown: Citrine, C-terminal, kept
T1 sequence (looked up): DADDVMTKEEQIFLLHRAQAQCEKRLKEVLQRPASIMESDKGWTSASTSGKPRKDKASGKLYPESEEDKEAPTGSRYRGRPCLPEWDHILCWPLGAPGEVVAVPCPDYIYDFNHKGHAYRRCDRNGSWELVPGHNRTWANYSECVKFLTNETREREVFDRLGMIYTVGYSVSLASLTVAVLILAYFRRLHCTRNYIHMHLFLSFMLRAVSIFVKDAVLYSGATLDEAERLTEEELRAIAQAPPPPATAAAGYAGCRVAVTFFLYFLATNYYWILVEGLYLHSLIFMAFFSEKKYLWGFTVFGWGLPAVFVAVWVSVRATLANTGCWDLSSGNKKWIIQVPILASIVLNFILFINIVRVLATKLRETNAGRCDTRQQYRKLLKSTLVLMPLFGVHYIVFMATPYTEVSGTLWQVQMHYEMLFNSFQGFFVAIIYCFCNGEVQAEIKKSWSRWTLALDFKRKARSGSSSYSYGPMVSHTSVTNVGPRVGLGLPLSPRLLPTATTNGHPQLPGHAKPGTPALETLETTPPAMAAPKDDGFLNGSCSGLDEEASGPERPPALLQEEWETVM

[5] = target: T1, parathyroid hormone 1 receptor, …; experiment: as above; details: partners not purified; remark: listed apart in the source

Q: Which efficacy, cAMP accumulation (Gαs), CHO-K1 PTH1R + RAMP2 cells [1] does the source give for PTH (1-34) (peptide) here?
A: 79.4%

Q: And the efficacy, cAMP accumulation (Gαs), CHO-K1 PTH1R + RAMP3 cells [1]?
A: 65.1%

Q: What about the efficacy, cAMP accumulation (Gαs), CHO-K1 PTH1R parental cells (mock) [1] of the same molecule?
A: 68.1%

Q: What about the efficacy, cAMP accumulation after pertussis toxin (cAMP + PTX), CHO-K1 PTH1R + RAMP2 cells [1] of the same molecule?
A: 71.6%

Q: What about the efficacy, cAMP accumulation after pertussis toxin (cAMP + PTX), CHO-K1 PTH1R + RAMP3 cells [1] of the same molecule?
A: 28.7%

Q: What about the efficacy, cAMP accumulation after pertussis toxin (cAMP + PTX), CHO-K1 PTH1R parental cells (mock) [1] of the same molecule?
A: 33.5%

Q: And the efficacy, calcium influx (Gαq), CHO-K1 PTH1R + RAMP2 cells [1]?
A: 63.5%

Q: And the efficacy, calcium influx (Gαq), CHO-K1 PTH1R parental cells (mock) [1]?
A: 19.8%

Q: What about the efficacy, β-arrestin recruitment, CHO-K1 PTH1R + RAMP2 cells [1] of the same molecule?
A: 103%

Q: What about the efficacy, β-arrestin recruitment, CHO-K1 PTH1R parental cells (mock) [1] of the same molecule?
A: 6.31%

Q: What about the pEC50, cAMP accumulation (Gαs), CHO-K1 PTH1R + RAMP2 cells [1] of the same molecule?
A: 9.55 pEC50

Q: And the pEC50, cAMP accumulation (Gαs), CHO-K1 PTH1R + RAMP3 cells [1]?
A: 8.55 pEC50

Q: And the pEC50, cAMP accumulation (Gαs), CHO-K1 PTH1R parental cells (mock) [1]?
A: 9.3 pEC50

Q: And the pEC50, cAMP accumulation after pertussis toxin (cAMP + PTX), CHO-K1 PTH1R + RAMP2 cells [1]?
A: 10 pEC50

Q: And the pEC50, cAMP accumulation after pertussis toxin (cAMP + PTX), CHO-K1 PTH1R + RAMP3 cells [1]?
A: 8.48 pEC50

Q: And the pEC50, cAMP accumulation after pertussis toxin (cAMP + PTX), CHO-K1 PTH1R parental cells (mock) [1]?
A: 8.9 pEC50

Q: And the pEC50, calcium influx (Gαq), CHO-K1 PTH1R + RAMP2 cells [1]?
A: 8.21 pEC50

Q: What about the pEC50, calcium influx (Gαq), CHO-K1 PTH1R parental cells (mock) [1] of the same molecule?
A: 8.9 pEC50

Q: What about the pEC50, β-arrestin recruitment, CHO-K1 PTH1R + RAMP2 cells [1] of the same molecule?
A: 8.19 pEC50

Q: What about the pEC50, β-arrestin recruitment, CHO-K1 PTH1R parental cells (mock) [1] of the same molecule?
A: 8.6 pEC50

Q: With PTHrP (1-108) (domain or fragment) as the molecule, how does the efficacy, cAMP accumulation, CHO-K1 PTH1R + RAMP2 cells [2] read?
A: 81.4%

Q: What about the efficacy, cAMP accumulation, CHO-K1 PTH1R parental cells (mock) [2] of the same molecule?
A: 72.8%

Q: What about the pEC50, cAMP accumulation, CHO-K1 PTH1R + RAMP2 cells [2] of the same molecule?
A: 8.61 pEC50

Q: And the pEC50, cAMP accumulation, CHO-K1 PTH1R parental cells (mock) [2]?
A: 8.25 pEC50

Q: For PTHrP (1-141) (ligand), which efficacy, cAMP accumulation, CHO-K1 PTH1R + RAMP2 cells [2] is on record?
A: 85.3%

Q: What about the efficacy, cAMP accumulation, CHO-K1 PTH1R + RAMP3 cells [2] of the same molecule?
A: 55.7%

Q: And the efficacy, cAMP accumulation, CHO-K1 PTH1R parental cells (mock) [2]?
A: 74.9%

Q: What about the pEC50, cAMP accumulation, CHO-K1 PTH1R + RAMP2 cells [2] of the same molecule?
A: 9.25 pEC50

Q: And the pEC50, cAMP accumulation, CHO-K1 PTH1R + RAMP3 cells [2]?
A: 7.86 pEC50

Q: What about the pEC50, cAMP accumulation, CHO-K1 PTH1R parental cells (mock) [2] of the same molecule?
A: 9.23 pEC50

B1: PTH (1-84) (ligand)
chain: SVSEIQLMHNLGKHLNSMERVEWLRKKLQDVHNFVALGAPLAPRDAGSQRPRKKEDNVLVESHEKSLGEADKADVNVLTKAKSQ
Q: Which efficacy, cAMP accumulation (Gαs), CHO-K1 PTH1R + RAMP2 cells [3] does the source give for B1 here?
A: 95.5%

Q: And the efficacy, cAMP accumulation (Gαs), CHO-K1 PTH1R + RAMP3 cells [3]?
A: 72.2%

Q: And the efficacy, cAMP accumulation (Gαs), CHO-K1 PTH1R parental cells (mock) [3]?
A: 86.6%

Q: And the efficacy, cAMP accumulation after pertussis toxin (cAMP + PTX), CHO-K1 PTH1R + RAMP2 cells [3]?
A: 94.3%

Q: And the efficacy, cAMP accumulation after pertussis toxin (cAMP + PTX), CHO-K1 PTH1R + RAMP3 cells [3]?
A: 71.5%

Q: What about the efficacy, cAMP accumulation after pertussis toxin (cAMP + PTX), CHO-K1 PTH1R parental cells (mock) [3] of the same molecule?
A: 85.5%

Q: And the efficacy, calcium influx (Gαq), CHO-K1 PTH1R + RAMP2 cells [3]?
A: 82.2%

Q: What about the efficacy, β-arrestin recruitment, CHO-K1 PTH1R + RAMP2 cells [3] of the same molecule?
A: 104%

Q: What about the efficacy, β-arrestin recruitment, CHO-K1 PTH1R parental cells (mock) [3] of the same molecule?
A: 6.08%

Q: And the pEC50, cAMP accumulation (Gαs), CHO-K1 PTH1R + RAMP2 cells [3]?
A: 9.24 pEC50

Q: And the pEC50, cAMP accumulation (Gαs), CHO-K1 PTH1R + RAMP3 cells [3]?
A: 7.55 pEC50

Q: What about the pEC50, cAMP accumulation (Gαs), CHO-K1 PTH1R parental cells (mock) [3] of the same molecule?
A: 8.2 pEC50

Q: And the pEC50, cAMP accumulation after pertussis toxin (cAMP + PTX), CHO-K1 PTH1R + RAMP2 cells [3]?
A: 9.01 pEC50

Q: And the pEC50, cAMP accumulation after pertussis toxin (cAMP + PTX), CHO-K1 PTH1R + RAMP3 cells [3]?
A: 7.51 pEC50

Q: And the pEC50, cAMP accumulation after pertussis toxin (cAMP + PTX), CHO-K1 PTH1R parental cells (mock) [3]?
A: 7.8 pEC50

Q: And the pEC50, calcium influx (Gαq), CHO-K1 PTH1R + RAMP2 cells [3]?
A: 7.38 pEC50

Q: And the pEC50, β-arrestin recruitment, CHO-K1 PTH1R + RAMP2 cells [3]?
A: 8.1 pEC50

Q: And the pEC50, β-arrestin recruitment, CHO-K1 PTH1R parental cells (mock) [3]?
A: 8.4 pEC50

B2: receptor activity-modifying protein 2, C-tagged Cerulean RAMP2 (natural protein, human, UniProt O60895 43-175, looked up)
chain: QPLPTTGTPGSEGGTVKNYETAVQFCWNHYKDQMDPIEKDWCDWAMISRPYSTLRDCLEHFAELFDLGFPNPLAERIIFETHQIHFANCSLVQPTFSDPPEDVLLAMIIAPICLIPFLITLVVWRSKDSEAQA
notes: RAMP2, cDNA without its stop codon between Kpn1 and Not1 of pcDNA3.1 Cerulean; source: COS-7, transfected (electroporation, pcDNA3.1), in fixed cells; not shown: Cerulean, C-terminal, kept
Q: Which “stoichiometry N” value [4] does the source give for B2 here?
A: ~1 RAMP2 per PTH1R

Q: And the “R (molar ratio of acceptor to donor)” value [5]?
A: 1.27 ± 0.31 PTH1R (acceptor) per RAMP2 (donor)

Q: And the “cell membrane NFRET relative to cer-cit fusion” value [5]?
A: 48.8 ± 4.1%

B3: receptor activity-modifying protein 3, C-tagged Cerulean RAMP3 (natural protein, human, UniProt O60896 24-148, looked up)
chain: RAGGCNETGMLERLPLCGKAFADMMGKVDVWKWCNLSEFIVYYESFTNCTEMEANVVGCYWPNPLAQGFITGIHRQFFSNCTVDRVHLEDPPDEVLIPLIVIPVVLTVAMAGLVVWRSKRTDTLL
notes: RAMP3, cDNA without its stop codon between Kpn1 and Not1 of pcDNA3.1 Cerulean; source: COS-7, transfected (electroporation, pcDNA3.1), in fixed cells; not shown: Cerulean, C-terminal, kept
Q: How did the “stoichiometry N” value [4] turn out when B3 was run?
A: ~2 RAMP3 per PTH1R

Q: And the “R (molar ratio of acceptor to donor)” value [5]?
A: 0.37 ± 0.06 PTH1R (acceptor) per RAMP3 (donor)

Q: And the “cell membrane NFRET relative to cer-cit fusion” value [5]?
A: 32 ± 4.7%
